Experiment [1] deals with K11-linked di-ubiquitin (UniProt P0CG48). Nature of the experiment: 15N T1 relaxation.
Experiment [2] shares this target. The experiment in a line: NMR titration.
The target in experiment [3] is K48-linked di-ubiquitin (K48-Ub2) (Homo sapiens) (UniProt P0CG47). Conditions: cited from earlier work.
The target in experiment [4] is K63-linked di-ubiquitin (K63-Ub2) (Homo sapiens) (UniProt P0CG47). To be noted: cited from earlier work.
A further experiment deals with monoUb (Homo sapiens) (UniProt P0CG47). Conditions: cited from earlier work.

Chain of hHR23a UBA2 UBA2 (P54725 315-361): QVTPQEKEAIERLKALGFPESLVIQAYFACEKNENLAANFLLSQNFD
Chain of Ub-associated domain (UBA) of Ubiquilin-1 (Q9UMX0 546-586): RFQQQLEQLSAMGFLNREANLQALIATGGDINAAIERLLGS

As for “Ub-associated domain (UBA) of Ubiquilin-1 (from UniProt Q9UMX0 546-586) (domain or fragment)”, the stoichiometry N (UBA molecules per K11-Ub2) with K11-linked di-ubiquitin [1] came to 2. In the experiment with K11-linked di-ubiquitin [2], the Kd, site on the distal Ub (two independent sites) was found to be 2.9 µM and the stoichiometry N (UQ1-UBA:K11-Ub2) was determined as 2.

The term Kd denotes the equilibrium constant for the complex coming apart. Turning to hHR23a UBA2 UBA2 (from UniProt P54725), the Kd in experiment [3] is 18 µM; in experiment [4] it was > 200 µM; in the experiment with monoUb (Homo sapiens) it was 400 µM.

(Values after PMC3802530.)
